Here are results for one molecule from PMC10030117 (eLife, 2023).

This experiment addresses Authentic MERS spike, full-length unstabilized, on the cell surface (MERS-CoV, strain , UniProt K9N5Q8). Put plainly: flow cytometry on cells. The note with it: one partner purified. For orientation: In flow cytometry, cells or beads pass a laser one at a time.

Chain of Authentic MERS spike, full-length unstabilized, on the cell surface (K9N5Q8 18-1353): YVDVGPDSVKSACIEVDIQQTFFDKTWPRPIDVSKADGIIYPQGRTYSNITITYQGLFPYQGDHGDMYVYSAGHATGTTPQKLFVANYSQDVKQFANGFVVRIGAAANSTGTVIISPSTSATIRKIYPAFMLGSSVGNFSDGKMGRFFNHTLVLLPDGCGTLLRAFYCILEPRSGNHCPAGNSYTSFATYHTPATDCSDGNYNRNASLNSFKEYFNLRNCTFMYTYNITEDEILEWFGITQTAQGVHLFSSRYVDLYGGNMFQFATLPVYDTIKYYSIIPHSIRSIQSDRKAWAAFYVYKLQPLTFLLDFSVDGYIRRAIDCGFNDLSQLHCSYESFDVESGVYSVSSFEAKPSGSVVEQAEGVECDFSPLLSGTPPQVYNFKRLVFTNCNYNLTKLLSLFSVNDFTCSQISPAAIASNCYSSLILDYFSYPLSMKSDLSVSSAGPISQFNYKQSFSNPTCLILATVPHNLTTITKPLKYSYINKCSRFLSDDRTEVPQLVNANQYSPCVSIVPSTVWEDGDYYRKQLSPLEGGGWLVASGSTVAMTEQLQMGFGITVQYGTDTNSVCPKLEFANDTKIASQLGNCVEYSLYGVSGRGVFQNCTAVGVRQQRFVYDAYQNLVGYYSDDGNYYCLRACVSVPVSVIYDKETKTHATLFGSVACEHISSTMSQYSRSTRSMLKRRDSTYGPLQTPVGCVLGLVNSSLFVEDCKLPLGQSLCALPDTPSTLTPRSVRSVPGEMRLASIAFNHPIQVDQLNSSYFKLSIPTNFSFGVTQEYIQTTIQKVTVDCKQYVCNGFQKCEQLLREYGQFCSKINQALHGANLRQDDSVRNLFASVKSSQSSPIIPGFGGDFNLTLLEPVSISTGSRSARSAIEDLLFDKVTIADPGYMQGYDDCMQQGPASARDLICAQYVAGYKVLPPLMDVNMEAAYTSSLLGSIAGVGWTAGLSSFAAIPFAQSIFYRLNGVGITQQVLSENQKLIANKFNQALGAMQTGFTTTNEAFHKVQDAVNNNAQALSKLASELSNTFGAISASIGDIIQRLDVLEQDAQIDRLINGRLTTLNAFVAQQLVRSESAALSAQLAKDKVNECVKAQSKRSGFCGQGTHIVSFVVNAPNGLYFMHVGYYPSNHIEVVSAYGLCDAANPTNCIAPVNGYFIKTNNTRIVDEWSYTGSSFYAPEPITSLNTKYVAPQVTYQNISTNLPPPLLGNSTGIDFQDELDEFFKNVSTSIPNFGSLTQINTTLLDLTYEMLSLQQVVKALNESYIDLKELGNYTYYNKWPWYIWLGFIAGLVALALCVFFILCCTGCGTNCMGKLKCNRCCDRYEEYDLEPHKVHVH

B1: Antibody RAY53, full-length human IgG1 (antibody, V domains shown)
VH: QVQLVQSGAVVLKPGASVKLSCKASGFNIKNTYIHWLKQAPGQRLEWIGRIGPAIGNTIYAPKFQGKATITTDTSASTAYLELSSLRSEDTAVYYCARYYGSSYYYLDYWGQGTTVTVSS
VL: DIVMTQSPLSVPVTPGEPVSISCRSSKSLLHSNGNTYLYWFLQKPGQSPQLLIARMSTLASGVPDRFSGSGSGTAFTLKISRVEAEDVGVYYCMQYLEYPLTFGAGTKLEIK
As for B1, the binding result is “binds”.
